Results from patent US20210380994A1, “LACTOCOCCUS LACTIS EXPRESSION SYSTEM FOR DELIVERING PROTEINS EFFICACIOUS FOR THE TREATMENT OF EPITHELIAL BARRIER FUNCTION DISORDERS” (Second Genome, Inc., priority 2018, published 2021).
Read-outs that look alike come from different tables or passages of the source.

Columns and labels:
[1] = post-translational modification (PTM) analysis by LC/MS/MS peptide mapping; assay type: physicochemical; details: non-stress
Method: Studies were performed to identify residues of SG-11 particularly susceptible to PTMs using LC/MS/MS. The analysis was performed by LakePharma (Belmont, Calif.) to 1) confirm the amino acid sequence of SG11 (SEQ ID NO-9), and 2) determine any post-translational modification which could lead to reduced biological activity and immunogenicity, particularly deamidation and oxidation.
For peptide mapping and PTM analysis, samples were treated with DTT and IAA, followed by trypsin digestion. The digested sample was then analyzed by Waters ACQUITY UPLC coupled to Xevo G2-XS QTOF mass spectrometer using a Protein BEH C18 column.

[2] = for Carbamidomethy C147, VDGEICYVSCQNVK (SEQ ID NO: 18) / Carbamidomethy C151, VDGEICYVSCQNVK (SEQ ID NO: 18): artificial carbamidomethylation by iodoacetamide
[3] = normalized to corresponding precursor
[4] = normalized to total peptide ion intensity

B1: SG-11: Roseburia hominis protein comprising SEQ ID NO:3; tested as SEQ ID NO:5, SEQ ID NO:7 or FLAG-tagged SEQ ID NO:9 (protein, listed as Rosburia hominis)
chain: LEGEESVVYVGKKGVIASLDVETLDQSYYDETELKSYVDAEVEDYTAEHGKNAVKVESLKVEDGVAKLKMKYKTPEDYTAFNGIELYQGKVVASLAAGYVYDGEFARVEEGKVVGAATKQDIYSEDDLKVAIIRANTDVKVDGEICYVSCQNVKLTGKDSVSIRDGYYLETGSVTASVDVTGQESVGTEQLSGTEQMEMTGEPVNADDTEQTEAAAGDGSFETDVYTFIVYK
[1]; [3]
  Deamidation N83 (peptide TPEDYTAFNGIELYQGK), % peptide: 3.77%
  Deamidation N137 (peptide ANTDVK), % peptide: 1.03%
  Deamidation N153 (peptide VDGEICYVSCQNVK), % peptide: 0.2%
[1]; normalized to total intensity of corresponding precursor with or without modification
  Deamidation N53 (peptide NAVK), % peptide: 7.84%
[1]; [4]
  Deamidation N53 (peptide NAVK), % total ion: 0.01%
  Deamidation N83 (peptide TPEDYTAFNGIELYQGK), % total ion: 0.25%
  Deamidation N137 (peptide ANTDVK), % total ion: 0.25%
  Deamidation N153 (peptide VDGEICYVSCQNVK), % total ion: 0.01%
  Oxidation M1 (peptide MLEGEESVVYVGK), % total ion: <0.01%
[2]; 4° C., 2 weeks, 1 mg/ml
  aggregates (SEC-HPLC): low level of aggregates
[2]; 37° C., 2 weeks, 1 mg/ml
  aggregation (SEC-HPLC): major aggregation occurred
[2]; 40° C. for two weeks
  Deamdation N206, GYYLETGSV...TFIVYK (SEQ ID NO: 29): 3.62%
  Deamidation N83, TPEDYTAFNGIELYQGX (SEQ ID NO: 26): 99.88%
  Deamidation N83 Deamidation Q89, TPEDYTAFNGIELYQGX (SEQ ID NO: 26): 0.12%
  Deamidation N137, ANTDVK (SEQ ID NO: 27): 14.61%
  Deamidation N153, VDGEICYVSCQNVK (SEQ ID NO: 18): 0%
  Deamidation Q30, GVIASLDVETLDQSYYDETELK (SEQ ID NO: 25): 0.09%
  Deamidation Q152 Deamidation N153 Carbamidomethy C151, VDGEICYVSCQNVK (SEQ ID NO: 18): 3.1%
  No modification, ANTDVK (SEQ ID NO: 27): 85.39%
  No modification, GVIASLDVETLDQSYYDETELK (SEQ ID NO: 25): 99.91%
  No modification, GYYLETGSVTASVDVTGQESVGTEQLSGTEQMEMTGEPVNADDTEQTEAAAGDGSFETDVYTFIVYK (SEQ ID NO: 29): 96.38%
  No modification, MLEGEESVVYVGK (SEQ ID NO: 24): 99.82%
  No modification, TPEDYTAFNGIELYQGX (SEQ ID NO: 26): 0%
  No modification, VDGEICYVSCQNVK (SEQ ID NO: 18): 44.85%
  Oxidation M2.00, GYYLETGSV...TFIVYK (SEQ ID NO: 29): 0%
  Oxidation M198, GYYLETGSV...TFIVYK (SEQ ID NO: 29): 0%
  Oxidation of M, MLEGEESVVYVGK (SEQ ID NO: 24): 0.18%
  Carbamidomethy C147, VDGEICYVSCQNVK (SEQ ID NO: 18): 33.59%
  Carbamidomethy C151, VDGEICYVSCQNVK (SEQ ID NO: 18): 18.45%
[2]; Freeze and thaw (6 cycles) −80° C. to room temperature
  Observation of solution: clear
[2]; Mechanical stress: 350 rpm shake, 4° C., 24 hr
  Observation of solution: clear
[2]; No treatment
  Deamdation N206, GYYLETGSV...TFIVYK (SEQ ID NO: 29): 0%
  Deamidation N53, NAVK (SEQ ID NO 30): 7.84%
  Deamidation N83, TPEDYTAFNGIELYQGX (SEQ ID NO: 26): 17.43%
  Deamidation N83 Deamidation Q89, TPEDYTAFNGIELYQGX (SEQ ID NO: 26): 0%
  Deamidation N137, ANTDVK (SEQ ID NO: 27): 1.04%
  Deamidation N153, VDGEICYVSCQNVK (SEQ ID NO: 18): 0.02%
  Deamidation Q30, GVIASLDVETLDQSYYDETELK (SEQ ID NO: 25): 0%
  Deamidation Q152 Deamidation N153 Carbamidomethy C151, VDGEICYVSCQNVK (SEQ ID NO: 18): 0%
  No modification, ANTDVK (SEQ ID NO: 27): 98.96%
  No modification, GVIASLDVETLDQSYYDETELK (SEQ ID NO: 25): 100%
  No modification, GYYLETGSV...TFIVYK (SEQ ID NO: 29): 100%
  No modification, MLEGEESVVYVGK (SEQ ID NO: 24): 99.78%
  No modification, TPEDYTAFNGIELYQGX (SEQ ID NO: 26): 82.57%
  No modification, VDGEICYVSCQNVK (SEQ ID NO: 18): 99.98%
  Oxidation M2.00, GYYLETGSV...TFIVYK (SEQ ID NO: 29): 0%
  Oxidation M198, GYYLETGSV...TFIVYK (SEQ ID NO: 29): 0%
  Oxidation of M, MLEGEESVVYVGK (SEQ ID NO: 24): 0.22%
[2]; Oxidation (H2O2)
  Deamdation N206, GYYLETGSV...TFIVYK (SEQ ID NO: 29): 0%
  Deamidation N83, TPEDYTAFNGIELYQGX (SEQ ID NO: 26): 37%
  Deamidation N83 Deamidation Q89, TPEDYTAFNGIELYQGX (SEQ ID NO: 26): 0%
  Deamidation N137, ANTDVK (SEQ ID NO: 27): 16.44%
  Deamidation N153, VDGEICYVSCQNVK (SEQ ID NO: 18): 0%
  Deamidation Q30, GVIASLDVETLDQSYYDETELK (SEQ ID NO: 25): 0.07%
  Deamidation Q152 Deamidation N153 Carbamidomethy C151, VDGEICYVSCQNVK (SEQ ID NO: 18): 0.31%
  No modification, ANTDVK (SEQ ID NO: 27): 83.56%
  No modification, GVIASLDVETLDQSYYDETELK (SEQ ID NO: 25): 99.93%
  No modification, GYYLETGSV...TFIVYK (SEQ ID NO: 29): 19.17%
  No modification, MLEGEESVVYVGK (SEQ ID NO: 24): 99.88%
  No modification, TPEDYTAFNGIELYQGX (SEQ ID NO: 26): 63%
  No modification, VDGEICYVSCQNVK (SEQ ID NO: 18): 63.23%
  Oxidation M2.00, GYYLETGSV...TFIVYK (SEQ ID NO: 29): 63.9%
  Oxidation M198, GYYLETGSV...TFIVYK (SEQ ID NO: 29): 16.92%
  Oxidation of M, MLEGEESVVYVGK (SEQ ID NO: 24): 0.12%
  Carbamidomethy C147, VDGEICYVSCQNVK (SEQ ID NO: 18): 34.52%
  Carbamidomethy C151, VDGEICYVSCQNVK (SEQ ID NO: 18): 1.93%
[2]; Oxidation: Hydroperoxide (0.005%) 40° C., 16 hr
  Observation of solution: clear
[2]; Temperature (2 weeks) 4° C.
  Observation of solution: clear
[2]; Temperature (2 weeks) 25° C.
  Observation of solution: clear
[2]; Temperature (2 weeks) 37° C.
  Observation of solution: clear
[2]; Temperature (2 weeks) 40° C.
  Observation of solution: clear
[2]; pH 4 and pH 9
  Observation of solution: clear
[2]; pH 9
  Deamdation N206, GYYLETGSV...TFIVYK (SEQ ID NO: 29): 11.84%
  Deamidation N83, TPEDYTAFNGIELYQGX (SEQ ID NO: 26): 19.1%
  Deamidation N83 Deamidation Q89, TPEDYTAFNGIELYQGX (SEQ ID NO: 26): 0%
  Deamidation N137, ANTDVK (SEQ ID NO: 27): 23.95%
  Deamidation N153, VDGEICYVSCQNVK (SEQ ID NO: 18): 0.35%
  Deamidation Q30, GVIASLDVETLDQSYYDETELK (SEQ ID NO: 25): 0.05%
  Deamidation Q152 Deamidation N153 Carbamidomethy C151, VDGEICYVSCQNVK (SEQ ID NO: 18): 28%
  No modification, ANTDVK (SEQ ID NO: 27): 76.05%
  No modification, GVIASLDVETLDQSYYDETELK (SEQ ID NO: 25): 99.95%
  No modification, GYYLETGSV...TFIVYK (SEQ ID NO: 29): 88.16%
  No modification, MLEGEESVVYVGK (SEQ ID NO: 24): 99.94%
  No modification, TPEDYTAFNGIELYQGX (SEQ ID NO: 26): 80.9%
  No modification, VDGEICYVSCQNVK (SEQ ID NO: 18): 8.76%
  Oxidation M2.00, GYYLETGSV...TFIVYK (SEQ ID NO: 29): 0%
  Oxidation M198, GYYLETGSV...TFIVYK (SEQ ID NO: 29): 0%
  Oxidation of M, MLEGEESVVYVGK (SEQ ID NO: 24): 0.61%
  Carbamidomethy C147, VDGEICYVSCQNVK (SEQ ID NO: 18): 71.71%
  Carbamidomethy C151, VDGEICYVSCQNVK (SEQ ID NO: 18): 12.45%
